Experimental data from the domain aggregation screens of Martell et al. (2025).

experiment: soluble fraction after stress (log2 fold change); higher = more stays soluble; pooled small domains, quantitative proteomics; details: stress: pH 4
Summary of the method: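 Custom libraries of small protein domains were pooled and exposed to pH 4. High-throughput quantitative proteomics then measured the log2 fold change in the amount of each domain still soluble, with higher values meaning more stayed soluble. This soluble-fraction fold change stands for aggregation propensity.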

| Sequence | soluble fraction (log2) |
| --- | --- |
| HMPEPLTARETEVLRLLSGGYSNREIAAAMFLAEGTIKNHVSAVLLKLGVRDRTRAVLRGLELGLIQ | -1.4 |
| HMTLQEFYARVGGDYNATLSRLPSEALVKKFILKYPGDPSFAQLKDALAAQDWELAFRASHTLKGVAQN | -0.493 |
| HMLGVKKFGGEAVIAGNIILRQRGTKWITGSNVGIGKDHTLFAKIEGYVVFERMRGRDGQQQISIYP | -0.192 |
| HMTWIAEIELRLMGNGAVTGAKIVKSTDLKDVDAAIYRAALEASPYPAPESGIGGRFTIKLKY | 0.015 |
| HMTSGTLTLTQDTPVYTEPNKDGGVAYVQPQGDIQWDKYIFANGDNWYSFVQKNRDQEVRFYIAYSDVG | -0.623 |
| HMDSISEQIYSIIKEEILLAKRKPGEQINPRKLADEFETSVMPIRDALNQLANEGLVIRKPRVGFFVR | -0.177 |
| HMDTNRIIGNKIYQLRRSINMTQQELAEKVGISVTFLSEIENGRKSMSVDTLIKLSKGLQVSLDTIVF | -0.831 |
| HMNSVTLEHIVYDFRVFNMLKGSGINDIDELIKAAEDGRLFKIIGSNLTYKRIKKSAAEFGVILPDKPG | -0.45 |
| HMPLTPATADAGRFVKQDRKYIRLLAKRYNFTHGDIKSEIDRVSAVLSSNGIDRVPLFLYKEYLEQYLAG | -0.924 |
| HMRQDEKTLLYWIAGHLKREGRQITERSARHLVEQVGTDMENLSREMEKLIAYTMGRTEITGQDIDDI | -1.21 |
| HMIMNEYEELRDRYLIGQIWKIGDLIEAKGIEGKIIQRGTNYVTFNDNNGKVHKAWLHEIKYEQ | -0.559 |
| HMNSSHRLIGLDPGLRVTGWGIVDAIGTKLVHVANGSVKSQQNAPLATRLLELENGLEEVFDNWQPDFA | -0.0459 |
| HMPPLKYLKVKSYLEAVAVKAESAMRMPTVRELMNQFNVSLATVNRALSELENDGVIVRRQGSGIVAAG | ≥ 0.43 |
| HMLQSGSDYLIEQVRMYTATGQREYMDNYFEELNTTRRRENALEYFAEHYGDNDAFTLLKSAMTTSQN | -0.691 |
| HMIAKIEGQISYVGNRFLIVDVSGVGYKLFVTNEAISLSKVEESIKLWVHTAVRENSIDLYG | 0.22 |
| HMENPMIEQLKQFIEAQGLTQGQLAAKLGVSTATVNQYLQGKYKGDTAALDAKAAQLMARSREK | 0.175 |
| HMKQLQIPYSFAKRHGVLLRYEGDQAFIVRRDNTSMLALQEARRLLGHPAHYLLYSEQEFNQLLSASFA | -0.455 |
| HMNNDIDRVFAELTVLSQKKGYLVFDDIEKGTEDLSVNEVDWLTNRLLTSGVEIFDDVPDTIK | -1.81 |
| HMSKRIFPNEFQRNSPDAMVMLDKMNLSRINVDPLTKSLTLNGGGSVKTLLNGREVSAVEIAALSP | 0.156 |

| Sequence | soluble fraction (log2) |
| --- | --- |
| HMNGADPYEQLGVTRDASDDELKAAHRKLSRENHPDTLMAKGMPPEFIEQANDKMARINAAWDQIRKERGI | 0.124 |
| HMTNSTGWSKSGGTQVTIREGETIYNLSRRYGVPAKSIMEANGIADATAVRAGQRISIPTYSY | 0.22 |
| HMTPKTSVPKPGQTVVVRKGDTIYALARIHDITPADLIAWNRLDNPSQIYPGQVIRLYPQGA | 0.105 |
| HMDSEQLSGLVNMGFSVYQAKTALEMFDNDIERAANYL | -0.871 |
| HMAPTADSVPFVIRSVVGGAQPFIVLEDGSKLLVGGVYRKYRLVAVENTRIIFEGPRTAIVT | -0.681 |
| HMGVAASEVHREKKESSLQWRQSYNVATDQRRQGKTYKEITEFLNGAELKNSKGGTWSISGVRKMLM | ≥ 0.43 |
| HMGFTDREREIIRNDLVATGRELFGTFGLKKTSIEDLTKAVGIAQGSFYTFFNSKEELYLEVMDREGEA | -1.47 |
| HMYGLSFLIGFTVVDRTYGDIGKVTAIDDSTVNTLMAVGDRLIPAQEAFITKIDNTKKIIYTQLPEGLL | -0.512 |
| HMEKIDYLSIGHRLRAYRIASSLKAEDVAESLGISRAAVYRLEKGEIVKIETLDNLARLLNTSLSSLLG | -1.3 |
| HMQVPVNVSMEILDWVIAHIKIDALPNQIREYLNLWVNGEKEPTFNQVEKVSKATGIPLGYFFLQTPPIED | -1.33 |
| HMNNIGENIKKYRTKQGLSQEDFAKKSGVKYTTLTKIESGVIKKPSVLVMAKIAKALGVNIEELI | ≥ 0.43 |
| HMLAIELDDKPGSLLRALEIFAKRNLNIEYMYAFTEKRGDKAVMIFKFSDIETAKKSLLEEGFN | -1.13 |
| HMRILGIDPGSVVTGYGVIDKSGNYLRHVLHGEIKPHKGYLLSEVLMDIFSKLSAVIVETNPQSV | 0.146 |
| HMAEPIEKIIIEGNQRIEALTIQSYLLLRVGEPFNRQLMNQTLKSLYATGYFSDVAVTRVSSSLLVK | -0.0595 |
| HMGSKEQELVILNNILERQLQAINLQKSAAGPMVNLRNVHNTLTKLVEAAGLKNVETYFTDPVIGAAQ | -0.543 |
| HMLDDDAGMIQAILRKAPGHYLPLHDKSDPASIQAQLGISKAQFKRAVGTLMKQGLIRQVKGDGLYLTQ | 0.125 |
| HMGGLAEIILNAIEIEGGFLPITDKSAPELIQSRLGMSKKAFKEAVGTLYKNRDIAIEPNGLRKI | -0.162 |
| HMSALIGAHTLERIDSRDFEGVVMAWLPKRDGYDSLYKIYHIEDGDFEELDDREVQAAISLFIEGT | -0.388 |
| HMNIIATHTVPAIEQKIRLQEYAISIFPQINSRSALKKAIAKKLVLLDGERASTADWIQPGQKIELLEDK | -0.274 |
